Assay results as given in patent US20250326823A1.

Experiments:
Experiment in all cases: cell-based or functional assay
[1] = target: SARS-CoV-2 spike (S) protein, BA.4.6 variant (SARS-CoV-2) (UniProt P0DTC2)
[2] = target: SARS-CoV-2 spike (S) protein, variant BQ.1.1 (SARS-CoV-2) (UniProt P0DTC2)
[3] = target: SARS-CoV-2 spike (S) protein, BA.2.12.1 variant (SARS-CoV-2) (UniProt P0DTC2)
[4] = target: SARS-CoV-2 spike (S) protein, BA.2.75 variant (SARS-CoV-2) (UniProt P0DTC2)
[5] = target: SARS-CoV-2 spike (S) protein, BA.4/5 variant (SARS-CoV-2) (UniProt P0DTC2)
[6] = target: SARS-CoV-2 spike (S) protein, BA.1 variant (SARS-CoV-2) (UniProt P0DTC2)
[7] = target: SARS-CoV-2 spike (S) protein, variant BJ.1 (SARS-CoV-2) (UniProt P0DTC2)
[8] = target: SARS-CoV-2 spike (S) protein, BA.2.75.2 variant (SARS-CoV-2) (UniProt P0DTC2)
[9] = target: SARS-CoV-2 spike (S) protein, variant XBB (SARS-CoV-2) (UniProt P0DTC2)
[10] = target: SARS-CoV-2 spike (S) protein, variant KP.2.3 (SARS-CoV-2) (UniProt P0DTC2)
[11] = target: SARS-CoV-2 spike (S) protein, variant EG.5.1 (SARS-CoV-2) (UniProt P0DTC2)
[12] = target: SARS-CoV-2 spike (S) protein, variant JN.1 (SARS-CoV-2) (UniProt P0DTC2)
[13] = target: SARS-CoV-2 spike (S) protein, variant XEC (SARS-CoV-2) (UniProt P0DTC2)
[14] = target: SARS-CoV-2 spike (S) protein, variant CH.1.1 (SARS-CoV-2) (UniProt P0DTC2)
[15] = target: SARS-CoV-2 spike (S) protein, variant KP.3 (SARS-CoV-2) (UniProt P0DTC2)
[16] = target: SARS-CoV-2 spike (S) protein, variant LB.1 (SARS-CoV-2) (UniProt P0DTC2)
[17] = target: SARS-CoV-2 spike (S) protein, variant KP.3.1.1 (SARS-CoV-2) (UniProt P0DTC2)
[18] = target: SARS-CoV-2 spike (S) protein, variant BA.2.86 (SARS-CoV-2) (UniProt P0DTC2)
[19] = target: SARS-CoV-2 spike (S) protein, variant KP.2 (SARS-CoV-2) (UniProt P0DTC2)
[20] = target: SARS-CoV-2 spike (S) protein, variant KP.2.3 (SARS-CoV-2)
[21] = target: SARS-CoV-2 spike (S) protein, variant KP.3 (SARS-CoV-2)
[22] = target: SARS-CoV-2 spike (S) protein, variant LB.1 (SARS-CoV-2)
[23] = target: SARS-CoV-2 spike (S) protein, variant KP.3.1.1 (SARS-CoV-2)
[24] = target: SARS-CoV-2 spike (S) protein, variant XEC (SARS-CoV-2)
[25] = target: SARS-CoV-2 spike (S) protein, variant BA.2.86 (SARS-CoV-2)
[26] = target: SARS-CoV-2 spike (S) protein, variant CH.1.1 (SARS-CoV-2)
[27] = target: SARS-CoV-2 spike (S) protein, variant JN.1 (SARS-CoV-2)
[28] = target: SARS-CoV-2 spike (S) protein, D614G (SARS-CoV-2) (UniProt P0DTC2)
[29] = target: SARS-CoV-2 spike (S) protein, variant EG.5.1 (SARS-CoV-2)
[30] = target: SARS-CoV-2 spike (S) protein, variant KP.2 (SARS-CoV-2)

Substance: LY-CoV-1404 (antibody)
- pseudotyped neutralization potency IC50 [1]: 0.0004 µg/mL
- pseudotyped neutralization potency IC80 [1]: 0.0014 µg/mL
- pseudotyped neutralization potency IC50 [2]: > 10 µg/mL
- pseudotyped neutralization potency IC80 [2]: > 10 µg/mL
- pseudotyped neutralization potency IC50 [3]: 0.0013 µg/mL
- pseudotyped neutralization potency IC80 [3]: 0.004 µg/mL
- pseudotyped neutralization potency IC50 [4]: 0.003 µg/mL
- pseudotyped neutralization potency IC80 [4]: 0.015 µg/mL
- pseudotyped neutralization potency IC50 [5]: 0.0014 µg/mL
- pseudotyped neutralization potency IC80 [5]: 0.003 µg/mL
- pseudotyped neutralization potency IC50 [6]: 0.002 µg/mL
- pseudotyped neutralization potency IC80 [6]: 0.005 µg/mL
- pseudotyped neutralization potency IC50 [7]: > 10 µg/mL
- pseudotyped neutralization potency IC80 [7]: > 10 µg/mL
- pseudotyped neutralization potency IC50 [8]: 0.001 µg/mL
- pseudotyped neutralization potency IC80 [8]: 0.005 µg/mL
- pseudotyped neutralization potency IC50 [9]: > 10 µg/mL
- pseudotyped neutralization potency IC80 [9]: > 10 µg/mL

Substance: VYD222 (antibody)
- neutralizing activity IC50 (µg/ml (caption; values match nM)) [10]: 28.4
- neutralizing activity IC80 (µg/ml (caption; values match nM)) [10]: 66.3
- neutralizing activity IC50 (µg/ml (caption; values match nM)) [11]: 6
- neutralizing activity IC80 (µg/ml (caption; values match nM)) [11]: 20.9
- neutralizing activity IC50 (µg/ml (caption; values match nM)) [12]: 4.71
- neutralizing activity IC80 (µg/ml (caption; values match nM)) [12]: 15.6
- neutralizing activity IC50 (µg/ml (caption; values match nM)) [13]: > 67
- neutralizing activity IC80 (µg/ml (caption; values match nM)) [13]: > 67
- neutralizing activity IC50 (µg/ml (caption; values match nM)) [14]: 9.93
- neutralizing activity IC80 (µg/ml (caption; values match nM)) [14]: 30.4
- neutralizing activity IC50 (µg/ml (caption; values match nM)) [15]: 8.83
- neutralizing activity IC80 (µg/ml (caption; values match nM)) [15]: 39.5
- neutralizing activity IC50 (µg/ml (caption; values match nM)) [16]: 30.8
- neutralizing activity IC80 (µg/ml (caption; values match nM)) [16]: > 67
- neutralizing activity IC50 (µg/ml (caption; values match nM)) [17]: 27.2
- neutralizing activity IC80 (µg/ml (caption; values match nM)) [17]: > 67
- neutralizing activity IC50 (µg/ml (caption; values match nM)) [18]: 14.2
- neutralizing activity IC80 (µg/ml (caption; values match nM)) [18]: 36.7
- neutralizing activity IC50 (µg/ml (caption; values match nM)) [19]: 4.56
- neutralizing activity IC80 (µg/ml (caption; values match nM)) [19]: 16.5
- neutralization IC50 [20]: 4.25 µg/mL
- neutralization IC50 [21]: 1.32 µg/mL
- neutralization IC50 [22]: 4.62 µg/mL
- neutralization IC50 [23]: 4.05 µg/mL
- neutralization IC50 [24]: > 10 µg/mL
- neutralization IC50 [25]: 2.13 µg/mL
- neutralization IC50 [26]: 1.49 µg/mL
- neutralization IC50 [27]: 0.706 µg/mL
- neutralization IC50 [28]: 0.01 µg/mL
- neutralization IC50 [29]: 0.899 µg/mL
- neutralization IC50 [30]: 0.684 µg/mL
